We go through two substances from paper PMC5676751.

The assay deals with HER2 on HER2-expressing SKOV3 and BT474 cells (human (endogenous in SKOV3 and BT474)) (UniProt P04626). The experiment in a line: radioligand binding; LigandTracer Yellow, living SKOV3 cells (10^6) on a segment of a dish; radiolabeled ADAPT at 0.333 and 1 nM; association and dissociation recorded, duplicates; InteractionMap software, two types of interaction.

“^99mTc-DEAVDANS-ADAPT6-GSSC (designed binder)” yielded a KD1 (first of two types of interaction) of 174 pM.

Substance “^111In-DEAVDANS-ADAPT6-GSSC-DOTA (designed binder)” showed a KD1 (first of two types of interaction) of 32.3 pM and a KD2 (second of two types of interaction) of 1.31 nM.
